# From the supplement of paper PMC9112550, “Optimization of the antimicrobial peptide Bac7 by deep mutational scanning” (BMC Biology, 2022)
# Tested on: Escherichia coli TOP10
# Experiment: shrunken log2 fold change of peptide-encoding DNA abundance (4.5 h post-induction vs induction); higher = less antimicrobial activity (less host growth inhibition)
# Details: time post-induction: 4.5 h; library: site-saturation at positions 5, 18, 19, 20
# 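Also: peptides expressed intracellularly from a pBAD plasmid library in pooled LB shake-flask culture, induced with 0.3% L-arabinose, DNA abundance read by NGS, three biological replicates, DESeq2 with apeglm shrinkage.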
row,Sequence,shrunken log2 fold change
1,RRIRCRPPRLPRPRPRPQRDPRP,-0.304
2,RRIRCRPPRLPRPRPRPQRQPRP,0.0683
3,RRIRCRPPRLPRPRPRPQRWPRP,0.294
4,RRIRCRPPRLPRPRPRPQSIPRP,-0.394
5,RRIRCRPPRLPRPRPRPQSLPRP,0.0939
6,RRIRCRPPRLPRPRPRPQTDPRP,-0.00613
7,RRIRCRPPRLPRPRPRPQTEPRP,0.0248
8,RRIRCRPPRLPRPRPRPQTGPRP,-0.144
9,RRIRCRPPRLPRPRPRPQTIPRP,-0.516
10,RRIRCRPPRLPRPRPRPQTKPRP,0.146
11,RRIRCRPPRLPRPRPRPQTPPRP,0.48
12,RRIRCRPPRLPRPRPRPQVPPRP,-0.106
13,RRIRCRPPRLPRPRPRPQWFPRP,-0.106
14,RRIRCRPPRLPRPRPRPQWIPRP,-0.692
15,RRIRCRPPRLPRPRPRPQWPPRP,0.0205
16,RRIRCRPPRLPRPRPRPQWQPRP,0.0413
17,RRIRCRPPRLPRPRPRPRAFPRP,-0.0361
18,RRIRCRPPRLPRPRPRPRAYPRP,-0.35
19,RRIRCRPPRLPRPRPRPRCGPRP,0.191
20,RRIRCRPPRLPRPRPRPREAPRP,0.521
21,RRIRCRPPRLPRPRPRPRFTPRP,0.066
22,RRIRCRPPRLPRPRPRPRGSPRP,0.511
23,RRIRCRPPRLPRPRPRPRHHPRP,-0.088
24,RRIRCRPPRLPRPRPRPRHRPRP,-0.466
25,RRIRCRPPRLPRPRPRPRIVPRP,0.0193

row,Sequence,shrunken log2 fold change
1,RRIRCRPPRLPRPRPRPRKTPRP,0.103
2,RRIRCRPPRLPRPRPRPRLAPRP,0.559
3,RRIRCRPPRLPRPRPRPRMTPRP,0.296
4,RRIRCRPPRLPRPRPRPRNCPRP,-0.288
5,RRIRCRPPRLPRPRPRPRNRPRP,0.239
6,RRIRCRPPRLPRPRPRPRPFPRP,0.176
7,RRIRCRPPRLPRPRPRPRPSPRP,0.695
8,RRIRCRPPRLPRPRPRPRPYPRP,-0.0927
9,RRIRCRPPRLPRPRPRPRSKPRP,0.0908
10,RRIRCRPPRLPRPRPRPRSWPRP,0.417
11,RRIRCRPPRLPRPRPRPRSYPRP,-0.233
12,RRIRCRPPRLPRPRPRPRVKPRP,0.196
13,RRIRCRPPRLPRPRPRPRVPPRP,-0.0115
14,RRIRCRPPRLPRPRPRPRWMPRP,0.346
15,RRIRCRPPRLPRPRPRPRYKPRP,-0.141
16,RRIRCRPPRLPRPRPRPSAPPRP,0.0889
17,RRIRCRPPRLPRPRPRPSCLPRP,-0.499
18,RRIRCRPPRLPRPRPRPSCMPRP,-0.313
19,RRIRCRPPRLPRPRPRPSDVPRP,0.00436
20,RRIRCRPPRLPRPRPRPSFEPRP,-0.508
21,RRIRCRPPRLPRPRPRPSHSPRP,-0.392
22,RRIRCRPPRLPRPRPRPSICPRP,-0.194
23,RRIRCRPPRLPRPRPRPSIFPRP,-0.575
24,RRIRCRPPRLPRPRPRPSMWPRP,-0.648
25,RRIRCRPPRLPRPRPRPSPDPRP,0.215

row,Sequence,shrunken log2 fold change
1,RRIRCRPPRLPRPRPRPSPEPRP,0.3
2,RRIRCRPPRLPRPRPRPSQLPRP,-0.357
3,RRIRCRPPRLPRPRPRPSRNPRP,0.155
4,RRIRCRPPRLPRPRPRPSRPPRP,0.245
5,RRIRCRPPRLPRPRPRPSRRPRP,-0.181
6,RRIRCRPPRLPRPRPRPSTWPRP,-0.0554
7,RRIRCRPPRLPRPRPRPTAIPRP,-0.273
8,RRIRCRPPRLPRPRPRPTAVPRP,0.393
9,RRIRCRPPRLPRPRPRPTCSPRP,-0.157
10,RRIRCRPPRLPRPRPRPTCYPRP,-0.154
11,RRIRCRPPRLPRPRPRPTDGPRP,-0.116
12,RRIRCRPPRLPRPRPRPTHYPRP,0.513
13,RRIRCRPPRLPRPRPRPTIHPRP,-0.883
14,RRIRCRPPRLPRPRPRPTILPRP,-0.646
15,RRIRCRPPRLPRPRPRPTLCPRP,-0.0107
16,RRIRCRPPRLPRPRPRPTMTPRP,0.106
17,RRIRCRPPRLPRPRPRPTNYPRP,0.263
18,RRIRCRPPRLPRPRPRPTPGPRP,0.589
19,RRIRCRPPRLPRPRPRPTPTPRP,0.982
20,RRIRCRPPRLPRPRPRPTQEPRP,0.121
21,RRIRCRPPRLPRPRPRPTRDPRP,0.104
22,RRIRCRPPRLPRPRPRPTRHPRP,0.161
23,RRIRCRPPRLPRPRPRPTSCPRP,-0.0641
24,RRIRCRPPRLPRPRPRPTSKPRP,0.921
25,RRIRCRPPRLPRPRPRPTTWPRP,-0.125

row,Sequence,shrunken log2 fold change
1,RRIRCRPPRLPRPRPRPTVAPRP,0.0998
2,RRIRCRPPRLPRPRPRPTWLPRP,-0.227
3,RRIRCRPPRLPRPRPRPTWPPRP,0.371
4,RRIRCRPPRLPRPRPRPTYDPRP,-0.609
5,RRIRCRPPRLPRPRPRPTYLPRP,-0.292
6,RRIRCRPPRLPRPRPRPVAAPRP,0.689
7,RRIRCRPPRLPRPRPRPVADPRP,0.181
8,RRIRCRPPRLPRPRPRPVCSPRP,-0.0747
9,RRIRCRPPRLPRPRPRPVDGPRP,0.0228
10,RRIRCRPPRLPRPRPRPVDRPRP,0.0626
11,RRIRCRPPRLPRPRPRPVEMPRP,0.0203
12,RRIRCRPPRLPRPRPRPVESPRP,-0.0217
13,RRIRCRPPRLPRPRPRPVGCPRP,0.204
14,RRIRCRPPRLPRPRPRPVKDPRP,-0.305
15,RRIRCRPPRLPRPRPRPVKPPRP,0.477
16,RRIRCRPPRLPRPRPRPVMEPRP,-0.0475
17,RRIRCRPPRLPRPRPRPVMFPRP,-0.154
18,RRIRCRPPRLPRPRPRPVMRPRP,0.16
19,RRIRCRPPRLPRPRPRPVPPPRP,0.474
20,RRIRCRPPRLPRPRPRPVRAPRP,0.486
21,RRIRCRPPRLPRPRPRPVSSPRP,-0.0119
22,RRIRCRPPRLPRPRPRPVTCPRP,-0.121
23,RRIRCRPPRLPRPRPRPVTSPRP,-0.0245
24,RRIRCRPPRLPRPRPRPVVCPRP,0.113
25,RRIRCRPPRLPRPRPRPWACPRP,-0.0929

row,Sequence,shrunken log2 fold change
1,RRIRCRPPRLPRPRPRPWCFPRP,-0.712
2,RRIRCRPPRLPRPRPRPWCLPRP,-0.339
3,RRIRCRPPRLPRPRPRPWDNPRP,-0.291
4,RRIRCRPPRLPRPRPRPWEFPRP,0.0363
5,RRIRCRPPRLPRPRPRPWEKPRP,0.0651
6,RRIRCRPPRLPRPRPRPWFDPRP,-0.496
7,RRIRCRPPRLPRPRPRPWGDPRP,-0.142
8,RRIRCRPPRLPRPRPRPWGWPRP,0.221
9,RRIRCRPPRLPRPRPRPWHEPRP,-0.0591
10,RRIRCRPPRLPRPRPRPWLEPRP,0.117
11,RRIRCRPPRLPRPRPRPWMNPRP,0.0105
12,RRIRCRPPRLPRPRPRPWNSPRP,-0.529
13,RRIRCRPPRLPRPRPRPWQHPRP,-0.256
14,RRIRCRPPRLPRPRPRPWRKPRP,0.119
15,RRIRCRPPRLPRPRPRPWRPPRP,0.0893
16,RRIRCRPPRLPRPRPRPWSGPRP,-0.0937
17,RRIRCRPPRLPRPRPRPWSHPRP,-0.0223
18,RRIRCRPPRLPRPRPRPWSLPRP,-1.5
19,RRIRCRPPRLPRPRPRPWSTPRP,-0.148
20,RRIRCRPPRLPRPRPRPWTDPRP,-0.055
21,RRIRCRPPRLPRPRPRPWTKPRP,-0.402
22,RRIRCRPPRLPRPRPRPWTMPRP,0.0153
23,RRIRCRPPRLPRPRPRPWWPPRP,0.0266
24,RRIRCRPPRLPRPRPRPWYKPRP,-1.01
25,RRIRCRPPRLPRPRPRPYEYPRP,-0.769

row,Sequence,shrunken log2 fold change
1,RRIRCRPPRLPRPRPRPYFEPRP,-0.572
2,RRIRCRPPRLPRPRPRPYFQPRP,-0.846
3,RRIRCRPPRLPRPRPRPYGAPRP,-0.569
4,RRIRCRPPRLPRPRPRPYHAPRP,-0.585
5,RRIRCRPPRLPRPRPRPYIFPRP,-0.773
6,RRIRCRPPRLPRPRPRPYIVPRP,-0.168
7,RRIRCRPPRLPRPRPRPYLKPRP,-1.1
8,RRIRCRPPRLPRPRPRPYMDPRP,0.0215
9,RRIRCRPPRLPRPRPRPYMYPRP,-0.912
10,RRIRCRPPRLPRPRPRPYPSPRP,-0.0149
11,RRIRCRPPRLPRPRPRPYQGPRP,0.0299
12,RRIRCRPPRLPRPRPRPYSFPRP,-0.414
13,RRIRCRPPRLPRPRPRPYSGPRP,-0.566
14,RRIRCRPPRLPRPRPRPYSNPRP,-0.655
15,RRIRCRPPRLPRPRPRPYSRPRP,-0.0442
16,RRIRCRPPRLPRPRPRPYTYPRP,-0.456
17,RRIRCRPPRLPRPRPRPYVCPRP,-0.11
18,RRIRCRPPRLPRPRPRPYWEPRP,-0.388
19,RRIRCRPPRLPRPRPRPYWYPRP,-0.553
20,RRIRCRPPRLPRPRPRPYYMPRP,-0.904
21,RRIRCRPPRLPRPRPRPYYNPRP,-1.2
22,RRIRCRPPRLPRPRPRPYYSPRP,-0.437
23,RRIRDRPPRLPRPRPRPAAAPRP,1.35
24,RRIRDRPPRLPRPRPRPACWPRP,0.929
25,RRIRDRPPRLPRPRPRPADCPRP,-0.0601
